Measurements published in the supplement of paper PMC11246515.
± gives the standard deviation of the averaged measurements.

Test: total protein half-life in vivo (active degradation + dilution); higher = more stable protein
[1] = E. coli NCM3722 delta-clpP, growth: N-lim chemostat, doubling time 6 h
[2] = E. coli NCM3722 delta-hslV, growth: N-lim chemostat, doubling time 6 h
[3] = E. coli NCM3722 delta-lon, growth: N-lim chemostat, doubling time 6 h
[4] = E. coli NCM3722 delta-smpB, growth: N-lim chemostat, doubling time 6 h
[5] = wild type E. coli NCM3722, growth: C-lim chemostat, doubling time 3 h
[6] = wild type E. coli NCM3722, growth: C-lim chemostat, doubling time 6 h
[7] = wild type E. coli NCM3722, growth: C-lim chemostat, doubling time 12 h
[8] = wild type E. coli NCM3722, growth: N-lim chemostat, doubling time 6 h
[9] = wild type E. coli NCM3722, growth: N-lim chemostat, doubling time 12 h
[10] = wild type E. coli NCM3722, growth: P-lim chemostat, doubling time 6 h
[11] = wild type E. coli NCM3722, growth: P-lim chemostat, doubling time 12 h
[12] = E. coli NCM3722 delta-clpP delta-lon delta-hslV, growth: N-lim chemostat, doubling time 6 h

| Sequence | total protein half-life in vivo [1] | total protein half-life in vivo [2] | total protein half-life in vivo [3] | total protein half-life in vivo [4] | total protein half-life in vivo [5] | total protein half-life in vivo [6] | total protein half-life in vivo [7] | total protein half-life in vivo [8] | total protein half-life in vivo [9] | total protein half-life in vivo [10] | total protein half-life in vivo [11] | total protein half-life in vivo [12] |
| --- | --- | --- | --- | --- | --- | --- | --- | --- | --- | --- | --- | --- |
| MQNAGSLVVLGSINADHILNLQSFPTPGETVTGNHYQVAFGGKGANQAVAAGRSGANIAFIACTGDDSIGESVRQQLATDNIDITPVSVIKGESTGVALIFVNGEGENVIGIHAGANAALSPALVEAQRERIANASALLMQLESPLESVMAAAKIAHQNKTIVALNPAPARELPDELLALVDIITPNETEAEKLTGIRVENDEDAAKAAQVLHEKGIRTVLITLGSRGVWASVNGEGQRVPGFRVQAVDTIAAGDTFNGALITALLEEKPLPEAIRFAHAAAAIAVTRKGAQPSVPWREEIDAFLDRQR [P0A9J6] | 6.07 ± 2.1 h | 4.44 ± 0.042 h | 4.91 ± 0.38 h | 4.54 ± 0.2 h | 3.14 ± 0.1 h | 5.66 ± 0.076 h | 11.8 ± 0.53 h | 4.74 ± 0.36 h | 7.76 ± 0.41 h | 5.878 ± 0.056 h | 11.9 ± 0.91 h |  |
| MQNNEQTEYKTVRGLTRGLMLLNMLNKLDGGASVGLLAELSGLHRTTVRRLLETLQEEGYVRRSPSDDSFRLTIKVRQLSEGFRDEQWISALAAPLLGDLLREVVWPTDVSTLDVDAMVVRETTHRFSRLSFHRAMVGRRLPLLKTASGLTWLAFCPEQDRKELIEMLASRPGDDYQLAREPLKLEAILARARKEGYGQNYRGWDQEEKIASIAVPLRSEQRVIGCLNLVYMASAMTIEQAAEKHLPALQRVAKQIEEGVESQAILVAGRRSGMHLR | 2.12 h | 1.85 ± 0.042 h | 2.59 h | 1.26 h | 1.55 ± 0.24 h | 2.35 ± 0.052 h | 3.26 ± 1.1 h | 1.85 ± 0.27 h |  | 1.72 ± 0.43 h | 2.94 ± 0.64 h | 6.32 ± 0.84 h |
| MQPFGVLDRYIGKTIFTTIMMTLFMLVSLSGIIKFVDQLKKAGQGSYDALGAGMYTLLSVPKDVQIFFPMAALLGALLGLGMLAQRSELVVMQASGFTRMQVALSVMKTAIPLVLLTMAIGEWVAPQGEQMARNYRAQAMYGGSLLSTQQGLWAKDGNNFVYIERVKGDEELGGISIYAFNENRRLQSVRYAATAKFDPEHKVWRLSQVDESDLTNPKQITGSQTVSGTWKTNLTPDKLGVVALDPDALSISGLHNYVKYLKSSGQDAGRYQLNMWSKIFQPLSVAVMMLMALSFIFGPLRSVPMGVRVVTGISFGFVFYVLDQIFGPLTLVYGIPPIIGALLPSASFFLISLWLLMRKS [P0ADC6] | 6.53 ± 0.4 h | 6.81 ± 0.8 h | 6.01 ± 0.47 h | 6.08 ± 0.48 h |  | 6.69 ± 0.65 h | 12.3 ± 0.43 h | 6.06 ± 0.099 h | 12.9 ± 0.5 h | 6.22 ± 0.49 h | 13.5 ± 0.88 h |  |
| MQPNDITFFQRFQDDILAGRKTITIRDESESHFKTGDVLRVGRFEDDGYFCTIEVTATSTVTLDTLTEKHAEQENMTLTELKKVIADIYPGQTQFYVIEFKCL | 5.77 ± 0.22 h | 5.77 ± 0.14 h | 6.02 ± 0.22 h | 6.22 ± 0.28 h | 3.49 ± 0.34 h | 5.2 ± 1.4 h | 10.4 ± 3.3 h | 6.12 ± 0.24 h | 11.3 ± 0.97 h | 6.47 ± 0.56 h | 14 ± 0.55 h |  |
| MQQIARSVALAFNNLPRPHRVMLGSLTVLTLAVAVWRPYVYHRDATPIVKTIELEQNEIRSLLPEASEPIDQAAQEDEAIPQDELDDKIAGEAGVHEYVVSTGDTLSSILNQYGIDMGDITQLAAADKELRNLKIGQQLSWTLTADGELQRLTWEVSRRETRTYDRTAANGFKMTSEMQQGEWVNNLLKGTVGGSFVASARNAGLTSAEVSAVIKAMQWQMDFRKLKKGDEFAVLMSREMLDGKREQSQLLGVRLRSEGKDYYAIRAEDGKFYDRNGTGLAKGFLRFPTAKQFRISSNFNPRRTNPVTGRVAPHRGVDFAMPQGTPVLSVGDGEVVVAKRSGAAGYYVAIRHGRSYTTRYMHLRKILVKPGQKVKRGDRIALSGNTGRSTGPHLHYEVWINQQAVNPLTAKLPRTEGLTGSDRREFLAQAKEIVPQLRFD [P0AFS9] |  | 6.32 h |  |  | 0.826 ± 0.34 h | 3.3 ± 0.13 h | 6.19 h | 5.39 h |  |  |  | 3.29 h |
| MQQKMIQFSGDVSLPAVGQGTWYMGEDASQRKTEVAALRAGIELGLTLIDTAEMYADGGAEKVVGEALTGLREKVFLVSKVYPWNAGGQKAINACEASLRRLNTDYLDLYLLHWSGSFAFEETVAAMEKLIAQGKIRRWGVSNLDYADMQELWQLPGGNQCATNQVLYHLGSRGIEYDLLPWCQQQQMPVMAYSPLAQAGRLRNGLLKNAVVNEIAHAHNISAAQVLLAWVISHQGVMAIPKAATIAHVQQNAAVLEVELSSAELAMLDKAYPAPKGKTALDMV |  |  |  |  | 2.9 ± 0.38 h | 5.61 ± 0.92 h | 8.61 ± 1.4 h |  |  | 5.03 ± 0.38 h | 9.97 ± 0.73 h | > 8 h |
